From paper PMC5739284

Biological target: His6-sPfUIS3 (recombinant His-tagged soluble P. falciparum UIS3, wild type) (P. falciparum)
Experiment: SPR

## GST-His6-LC3B (recombinant) (from UniProt Q9GZQ8 1-120) (natural protein)
  Kd: 244 nM
